2 proteins from article PMC5663463 (Protein expression and purification, 2012) can be followed below.

This series concerns the molecule itself. Kind of series: SEC.

B1: native (cleaved) Staphylococcus aureus dihydroorotase (PyrC) (enzyme)
chain: GPMKLIKNGKVLQNGELQQADILIDGKVIKQIAPAIEPSNGVDIIDAKGHFVSPGFVDVHVHLREPGGEYKETIETGTKAAARGGFTTVCPMPNTRPVPDSVEHFEALQKLIDDNAQVRVLPYASITTRQLGKELVDFPALVKEGAFAFTDDGVGVQTASMMYEGMIEAAKVNKAIVAHCEDNSLIYGGAMHEGKRSKELGIPGIPNICESVQIARDVLLAEAAGCHYHVCHVSTKESVRVIRDAKRAGIHVTAEVTPHHLLLTEDDIPGNNAIYKMNPPLRSTEDREALLEGLLDGTIDCIATDHAPHARDEKAQPMEKAPFGIVGSETAFPLLYTHFVKNGDWTLQQLVDYLTIKPCETFNLEYGTLKENGYADLTIIDLDSEQEIKGEDFLSKADNTPFIGYKVYGNPILTMVEGEVKFEGDK
As to B1, the stoichiometry N (in general, a count of units in the complex or per binding partner) turned out to be 2.

B2: His-SUMO tagged Staphylococcus aureus dihydroorotase (PyrC) (enzyme)
chain: LEVLFQGPMKLIKNGKVLQNGELQQADILIDGKVIKQIAPAIEPSNGVDIIDAKGHFVSPGFVDVHVHLREPGGEYKETIETGTKAAARGGFTTVCPMPNTRPVPDSVEHFEALQKLIDDNAQVRVLPYASITTRQLGKELVDFPALVKEGAFAFTDDGVGVQTASMMYEGMIEAAKVNKAIVAHCEDNSLIYGGAMHEGKRSKELGIPGIPNICESVQIARDVLLAEAAGCHYHVCHVSTKESVRVIRDAKRAGIHVTAEVTPHHLLLTEDDIPGNNAIYKMNPPLRSTEDREALLEGLLDGTIDCIATDHAPHARDEKAQPMEKAPFGIVGSETAFPLLYTHFVKNGDWTLQQLVDYLTIKPCETFNLEYGTLKENGYADLTIIDLDSEQEIKGEDFLSKADNTPFIGYKVYGNPILTMVEGEVKFEGDK
As to B2, the “stoichiometry N” value was found to be 2.
